The binders below were run against T1, Hyper-IL-6 (sIL-6R/IL-6 fusion) (UniProt P08887 20-323+P05231:30-212, internal_change) (assay: filter binding).
GGGGAGGCUGUGGUGAUUG (structured_RNA) [AIR-3A-G17/18U]: no binding.
GGGUGUGUGGGUGGGU (structured_RNA) [rAID-1-G6U]: no binding.
In the case of GGGTGGGTGGGTGGGA (structured_DNA) [AID-1-T16A], the Kd is reported as 693 ± 392 nM.
Work on GGGAGGGTGGGTGGGT (structured_DNA) [AID-1-T4A] yielded a Kd of 420 ± 160 nM.
GGGUGGGUGGGUGGGU (structured_RNA) [rAID-1] was tested, and the Kd was 208 ± 53 nM.
In the case of GGGTGGGTGGGTGGGT (structured_DNA) [AID-1 (T30923)], the Kd is reported as 209 ± 96 nM.
GGGUGGGUGGGUGGG (structured_RNA) [rAID-1-U] was tested, and the Kd was 199 ± 65 nM.
Work on GGGGAGGCUGUGGUGAGGG (structured_RNA) [AIR-3A] yielded a Kd of 82 ± 9 nM.
GGGTGGGTGGGTGGG (structured_DNA) [AID-1-T] gave a Kd of 127 ± 79 nM.
GTTTGTGTTTGTGTGT (ssDNA) [NK3]: no binding.
GGGTGGGTGGGAGGGT (structured_DNA) [AID-1-T12A] was tested, and the Kd was 234 ± 71 nM.
Work on GGGTGGGAGGGTGGGT (structured_DNA) [AID-1-T8A] yielded a Kd of 316 ± 59 nM.
In the case of GTGGTGGGTGGGTGGGT (structured_DNA) [T30175], the Kd is reported as 293 ± 94 nM.

What follows are binders tested against IL-6 (human, UniProt P05231 30-212) (assay: filter binding).
Sequence of IL-6 (P05231 30-212): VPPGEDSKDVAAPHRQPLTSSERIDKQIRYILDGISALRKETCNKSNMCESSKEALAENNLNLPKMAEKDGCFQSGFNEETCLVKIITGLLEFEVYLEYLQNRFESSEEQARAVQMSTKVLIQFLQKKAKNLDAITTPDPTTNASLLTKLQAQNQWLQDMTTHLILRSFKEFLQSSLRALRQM
GGGTGGGTGGGTGGGT (structured_DNA) [AID-1 (T30923)]: no binding.
GTGGTGGGTGGGTGGGT (structured_DNA) [T30175]: no binding.

Molecular target: T1, Hyper-IL-6 (sIL-6R/IL-6 fusion)
Assay: filter binding
Remark: another data set of the same source
GGGTGAGTGGGTGGGT (structured_DNA) [AID-1-G6A]: no binding.
TGGTGGGTGGGTGGGT (structured_DNA) [AID-1-G1T]: no binding.
GGGTGGGTGGGTGTGT (structured_DNA) [AID-1-G14T]: no binding.
GGTTGGGTGGGTGGGT (structured_DNA) [AID-1-G3T]: no binding.
GGTTGGTGTGGTTGG (structured_DNA) [TBA]: no binding.
GTGTGTGTGTGTGTGT (ssDNA) [PolyGT]: no binding.
GGGGTGGGGTGGGGTGGGGT (structured_DNA) [d(GGGGT)4]: no binding.
GGTGGTGGTGGT (structured_DNA) [d(GGT)4]: no binding.
GGGGAGGCUGUGGUGAUGG (structured_RNA) [AIR-3A-G17U]: no binding.
GGGTGAGTGGGTGAGT (ssDNA) [AID-1-G6A/G14A]: no binding.
GGGTGGGTGTGTGGGT (structured_DNA) [AID-1-G10T]: no binding.
GTGTGGGTGGGTGGGT (structured_DNA) [AID-1-G2T]: no binding.
GGGTGTGTGGGTGGGT (structured_DNA) [AID-1-G6T]: no binding.

Each binder was assayed against thrombin (UniProt P00734;P00734 328-363;364-622) (assay: filter binding).
GGGTGGGTGGGTGGGT (structured_DNA) [AID-1 (T30923)]: no binding.

The binders below were run against T1, Hyper-IL-6 (sIL-6R/IL-6 fusion) (assay: SPR).
With GGGTGGGTGGGTGGGT (structured_DNA) [AID-1 (T30923)] the Kd was 490 nM.

Molecular target: T1, Hyper-IL-6 (sIL-6R/IL-6 fusion)
Assay: filter binding
Remark: another data set of the same source
In the case of GGGAGGGAGGGAGGGA (structured_DNA) [AID-1+A], the Kd is reported as 691 ± 271 nM.
